Target: T1, Aβ42-GFP (Homo sapiens, UniProt P05067)
T1 construct: a chimeric fusion of the human Aβ(1-42) peptide (Aβ42) with GFP; expressed in transfected cells; host or cells: E. coli BL21(DE3)
Assay: High-throughput sequencing of pSICLOPPS vectors isolated after bacterial sorting for enhanced Aβ42-GFP fluorescence
Details: for Reads/Total TXXXR reads (%): relative to total TXXXR reads; for Normalized read number (%): Table 3, cyclo-TXXR tetrapeptides
From the text: On the other hand, very few bioactive sequences resembling AβC5-34 should exist. […] The peptide-encoding vectors contained in these clones were isolated and the peptide-encoding region of approximately 5.6 million of these plasmids was sequenced using an Ion Torrent high-throughput sequencing platform. […] First, pentapeptides were the dominant peptide species within the sorted pool (FIG. 12D), in agreement with previous observations (FIG. 8G). Second, the most prevalent motif among the selected pentapeptide sequences were TXXXR pentapeptides (˜47% of the selected pentapeptide-encoding pSICLOPPS plasmids; ˜42% of the unique selected pentapeptide sequences) (Table 1), in accordance with previous observations (FIG. 8G). […] At position 2, Thr, Ala, and Val were preferred, while aromatic residues (Phe, Trp, Tyr) were completely excluded from the selected TXXXR peptide pool, in full agreement with our site-directed mutagenesis studies. At the highly variable position 3, the complete absence of the negatively charged amino acids Glu and Asp among the selected sequences was notable (FIG. 12E). […] It is noteworthy, that Lys and Gln residues were practically absent from all positions, while the β sheet-breaking amino acid Pro that is typically included in designed peptide-based inhibitors of amyloid aggregation appeared with strikingly low frequencies (FIG. 12E).
Electrocompetent E. coli BL21(DE3) cells (Novagen, USA) carrying either the expression vector pETSOD1(A4V)-GFP, which produces SOD1(A4V)-GFP under control of the strong bacteriophage T7 promoter, or pETAβ42-GFP, which produces Aβ42-GFP under control of the T7 promoter, were co-transformed with the combined pSICLOPPS-NuX1X2X3-X5 vector library. Approximately 10^8 transformants carrying both the vector library and either pETSOD1(A4V)-GFP or pETAβ42-GFP vectors were harvested, pooled together, and grown in Luria-Bertani (LB) liquid medium containing either 0.005% (pETSOD1(A4F)-GFP) or 0.002% (pETAβ42-GFP) L-arabinose—the inducer of cyclic peptide production—at 37° C. with shaking. When the optical density at 600 nm (OD600) of the bacterial culture was about 0.5, 0.01 (pETSOD1(A4F)-GFP) or 0.1 (pETAβ42-GFP) mM isopropyl-β-D-thiogalactoside (IPTG) was added to the medium to induce overexpression of the reporter. […] The isolated cells were re-grown and screened for additional rounds in an identical manner until the desired enrichment in high-fluorescence clones was achieved.
For the characterization of the initial libraries, a combined pSICLOPPS-NuX1X2X3-X5 vector library was prepared containing approximately equal amounts of each one of the tetra-, penta- and hexapeptide sub-libraries. These samples were digested with NcoI and BsrGI and the resulting ˜250 bp product that contained the variable peptide-encoding region was isolated. High-throughput sequencing analysis was performed using an Ion Torrent high-throughput sequencing platform. From the obtained data, all the sequences with mismatches outside of the variable peptide-encoding region were removed, and only the 12-, 15- or 18-bp-long peptide-encoding sequences were subjected to further analysis. The libraries of the selected cyclic peptides that enhance either SOD1(A4V)-GFP or Aβ42-GFP fluorescence were sequenced in a similar manner, with the only exception being that all sequences including stop codons were discarded from subsequent analysis.

[1] = after the second round of bacterial sorting for enhanced Aβ42-GFP fluorescence
[2] = after the second round of bacterial sorting for enhanced Aβ42-GFP fluorescence, relative to total pentapeptide reads
[3] = after the second round of bacterial sorting for enhanced Aβ42-GFP fluorescence, relative to total peptide reads
[4] = pSICLOPPS-NuX1X2X3-X5 vectors after the second round of bacterial sorting for enhanced Aβ42-GFP fluorescence
[5] = Table 4, hexapeptides, after second round of sorting
[6] = after the second round of bacterial sorting
[7] = after the second round of bacterial sorting, relative to total pentapeptide reads
[8] = after the second round of bacterial sorting, relative to total peptide reads
[9] = high-throughput sequencing of isolated pSICLOPPS-NuX1X2X3-X5 vectors after the second round of bacterial sorting for enhanced Aβ42-GFP fluorescence, selected cyclo-TXXXR pentapeptides

| Substance | Reads/Total TXXXR reads (%) [6] [%] | Reads/Total pentapeptide reads (%) [7] [%] | Reads/Total peptide reads (%) [8] [%] | Number of reads [9] | other results |
| --- | --- | --- | --- | --- | --- |
| AβC5-399 (TAFAR; head-to-tail cyclic) |  |  |  |  | Reads/Total TXXXR reads (%) [1]: 0.004%; Reads/Total pentapeptide reads (%) [2]: 0.002%; Reads/Total peptide reads (%) [3]: 0.002%; Number of reads [4]: 82 |
| cyclo-TTRR (cyclic) [AβC4-11] |  |  |  |  | Normalized read number (%): 1.2% |
| AβC5-394 (TTVSR; head-to-tail cyclic) |  |  |  |  | Reads/Total TXXXR reads (%) [1]: 0.005%; Reads/Total pentapeptide reads (%) [2]: 0.002%; Reads/Total peptide reads (%) [3]: 0.002%; Number of reads [4]: 86 |
| AβC5-395 (TTQHR; head-to-tail cyclic) |  |  |  |  | Reads/Total TXXXR reads (%) [1]: 0.004%; Reads/Total pentapeptide reads (%) [2]: 0.002%; Reads/Total peptide reads (%) [3]: 0.002%; Number of reads [4]: 85 |
| TPARFD [AβC6-78] |  |  |  |  | Reads/Total hexapeptide reads (%) (Table 4): 0.012%; Reads/Total peptide reads (%) (Table 4): 0.001%; Number of reads [5]: 55 |
| AβC5-270 (TATWR; cyclic) | 0.014 | 0.007 | 0.006 | 266 |  |
| AβC5-13 (TALDR; cyclic) | 3.301 | 1.547 | 1.386 | 62,792 |  |
| AβC5-305 (TTADR; cyclic) | 0.010 | 0.004 | 0.004 | 181 |  |
| AβC5-89 (TATDR; cyclic) | 0.420 | 0.197 | 0.176 | 7,984 |  |
| AβC5-450 (TRDVR; cyclic pentapeptide) |  |  |  |  | Reads/Total TXXXR reads (%) [1]: 0.003%; Reads/Total pentapeptide reads (%) [2]: 0.001%; Reads/Total peptide reads (%) [3]: 0.001%; Number of reads [4]: 58 |
| AβC5-392 (TTCDR; head-to-tail cyclic) |  |  |  |  | Reads/Total TXXXR reads (%) [1]: 0.005%; Reads/Total pentapeptide reads (%) [2]: 0.002%; Reads/Total peptide reads (%) [3]: 0.002%; Number of reads [4]: 87 |
| AβC5-459 (TTAAR; cyclic pentapeptide) |  |  |  |  | Reads/Total TXXXR reads (%) [1]: 0.003%; Reads/Total pentapeptide reads (%) [2]: 0.001%; Reads/Total peptide reads (%) [3]: 0.001%; Number of reads [4]: 55 |
| AβC5-245 (TTRFR; cyclic) | 0.019 | 0.009 | 0.008 | 364 |  |
| AβC5-15 (TANVR; cyclic) | 2.516 | 1.179 | 1.056 | 47,855 |  |
| AβC5-35 (TVRDR; head-to-tail cyclic) | 1.337 | 0.626 | 0.561 | 25,428 |  |
| AβC5-121 (TIKDR; cyclic) | 0.209 | 0.098 | 0.088 | 3,970 |  |
| AβC5-244 (TTRVR; cyclic) | 0.019 | 0.009 | 0.008 | 366 |  |
| AβC5-73 (TTRDR; cyclic pentapeptide) | 0.678 | 0.318 | 0.285 | 12,894 |  |
| AβC5-481 (TVFGR; cyclic pentapeptide) |  |  |  |  | Reads/Total TXXXR reads (%) [1]: 0.003%; Reads/Total pentapeptide reads (%) [2]: 0.001%; Reads/Total peptide reads (%) [3]: 0.001%; Number of reads [4]: 50 |
| TPVLVD [AβC6-48] |  |  |  |  | Reads/Total hexapeptide reads (%) (Table 4): 0.052%; Reads/Total peptide reads (%) (Table 4): 0.005%; Number of reads [5]: 236 |
| AβC5-21 (TTWCR; cyclic) | 1.908 | 0.894 | 0.801 | 36,295 |  |

| Substance | Reads/Total TXXXR reads (%) [6] [%] | Reads/Total pentapeptide reads (%) [7] [%] | Reads/Total peptide reads (%) [8] [%] | Number of reads [9] | other results |
| --- | --- | --- | --- | --- | --- |
| AβC5-438 (TTTSR; cyclic pentapeptide) |  |  |  |  | Reads/Total TXXXR reads (%) [1]: 0.003%; Reads/Total pentapeptide reads (%) [2]: 0.002%; Reads/Total peptide reads (%) [3]: 0.001%; Number of reads [4]: 62 |
| AβC5-118 (TTFWR; cyclic) | 0.222 | 0.104 | 0.093 | 4,216 |  |
| TLGWLD [AβC6-42] |  |  |  |  | Reads/Total hexapeptide reads (%) (Table 4): 0.068%; Reads/Total peptide reads (%) (Table 4): 0.007%; Number of reads [5]: 307 |
| cyclo-SHSPT [AβC5-387] |  |  |  |  | Reads/Total SASPT-like reads (%) (Table 2): 0.337%; Reads/Total pentapeptide reads (%) (Table 2): 0.002%; Reads/Total peptide reads (%) (Table 2): 0.002%; Number of reads (Table 2, after second round of sorting): 89 |
| TPPWFD [AβC6-44] |  |  |  |  | Reads/Total hexapeptide reads (%) (Table 4): 0.064%; Reads/Total peptide reads (%) (Table 4): 0.006%; Number of reads [5]: 289 |
| AβC5-139 (TTSPR; cyclic) | 0.100 | 0.047 | 0.042 | 1,904 |  |
| AβC5-126 (TTLLR; cyclic) | 0.159 | 0.074 | 0.067 | 3,016 |  |
| AβC5-258 (TTSCR; cyclic) | 0.016 | 0.007 | 0.007 | 301 |  |
| cyclo-TTSR (cyclic) [AβC4-31] |  |  |  |  | Normalized read number (%): 0.3241% |
| AβC5-443 (TTHHR; cyclic pentapeptide) |  |  |  |  | Reads/Total TXXXR reads (%) [1]: 0.003%; Reads/Total pentapeptide reads (%) [2]: 0.001%; Reads/Total peptide reads (%) [3]: 0.001%; Number of reads [4]: 60 |
| AβC5-325 (TVWIR; head-to-tail cyclic) | 0.008 | 0.004 | 0.003 | 144 |  |
| AβC5-45 (TTWVR; cyclic pentapeptide) | 1.094 | 0.512 | 0.459 | 20,798 |  |
| AβC5-129 (TTLFR; cyclic) | 0.138 | 0.065 | 0.058 | 2,630 |  |
| cyclo-TRGR [AβC4-34] |  |  |  |  | Normalized read number (%): 0.3047% |
| AβC5-46 (TLLWR; cyclic pentapeptide) | 1.049 | 0.492 | 0.440 | 19,957 |  |
| TPSWFD [AβC6-65] |  |  |  |  | Reads/Total hexapeptide reads (%) (Table 4): 0.023%; Reads/Total peptide reads (%) (Table 4): 0.002%; Number of reads [5]: 105 |
| AβC5-321 (TTTFR; head-to-tail cyclic) | 0.008 | 0.004 | 0.003 | 148 |  |
| AβC5-359 (TAMWR; head-to-tail cyclic) | 0.006 | 0.003 | 0.002 | 110 |  |
| TLEYFM [AβC6-28] |  |  |  |  | Reads/Total hexapeptide reads (%) (Table 4): 0.123%; Reads/Total peptide reads (%) (Table 4): 0.012%; Number of reads [5]: 556 |
| AβC5-463 (TVVDR; cyclic pentapeptide) |  |  |  |  | Reads/Total TXXXR reads (%) [1]: 0.003%; Reads/Total pentapeptide reads (%) [2]: 0.001%; Reads/Total peptide reads (%) [3]: 0.001%; Number of reads [4]: 54 |
